Reference: the supplement of paper PMC7877785
± gives the uncertainty stated by the source.

Assay: self-splicing fitness, log relative to wild type (ln ratio); higher = more splicing; Tetrahymena group I intron in knt gene, E. coli kanamycin selection, DiMSum; sequences stand for … in CUCUCU…GGAGGGAAAAGUUAUCAGGCAUGCACCUGGUAGCUAGUCUUUAAACCAAUAGAUUGCAUCGGUUUAAAAGGCAAGACCGUCAAAUUGCGGGAAAGGGGUCAACAGCCGUUCAGUACCAAGUCUCAGGGGAAACUUUGAGAUGGCCUUGCAAAGGGUAUGGUAAUAAGCUGACGGACAUGGUCCUAACCACGCAGCCAAGUCCUAAGUCAACAGAUCUUCUGUUGAUAUGGAUGCAGUUCACAGACUAAAUGUCGGUCGGGGAAGAUGUAUUCUUCUCAUAAGAUAUAGUCGGACCUCUCCUUAAUGGGAGCUAGCGGAUGAAGUGAUGCAACACUGGAGCCGCUGGGAACUAAUUUGUAUGCGAAAGUAUAUUGAUUAGUUUUGGAGUACUCGUGGUCG
In short: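 Six replicate transformations of E. coli BL21(DE3) with a pET-22b(+) library were grown overnight at 37°C or 30°C. The library randomised all eight P1ex-region intron nucleotides, the intron lying in the knt kanamycin-resistance gene, and plates were LB agar with or without 25 μg/mL kanamycin plus 100 μg/mL carbenicillin, 50 μM IPTG and 0.2% rhamnose. Pooled colonies were amplicon-sequenced on an Illumina HiSeq 2500, and fitness is the DiMSum error-weighted combination of wild-type-normalised replicate fold changes, kanamycin versus none.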

Sequence | self-splicing fitness (ln) (30 °C) | self-splicing fitness (ln) (37 °C)
ACGGAGCAAUAUUACGUCGG | -3.04 ± 0.31 | -0.422 ± 0.23
ACGGAGCAAUAUUACGUUCC | -3.92 ± 0.47 | -2.01 ± 0.37
ACGUAGCAAUAUUACGAACA | -1.56 ± 0.24 | -0.252 ± 0.2
ACGUAGCAAUAUUACGACUC | -0.301 ± 0.26 | -0.584 ± 0.27
ACGUAGCAAUAUUACGACUU | -0.145 ± 0.099 | 0.593 ± 0.13
ACGUAGCAAUAUUACGAUAA | -1.52 ± 0.13 | -1.51 ± 0.18
ACGUAGCAAUAUUACGAUAG | -3.45 ± 0.24 | -2.53 ± 0.23
ACGUAGCAAUAUUACGAUCC | -1.03 ± 0.17 | -0.00168 ± 0.18
ACGUAGCAAUAUUACGCACC | -1.18 ± 0.11 | -0.224 ± 0.16
ACGUAGCAAUAUUACGCAGU | -2.58 ± 0.2 | -2.54 ± 0.24
ACGUAGCAAUAUUACGGAAA | -2.27 ± 0.4 | -1.94 ± 0.33
ACGUAGCAAUAUUACGGACC | -1.21 ± 0.16 | -0.314 ± 0.2
ACGUAGCAAUAUUACGGCUC | -1.2 ± 0.12 | -0.844 ± 0.15
ACGUAGCAAUAUUACGGUGC | -3.86 ± 0.4 | -2.01 ± 0.22
ACGUAGCAAUAUUACGUAGC | -3.34 ± 0.27 | -2.62 ± 0.35
ACGUAGCAAUAUUACGUCCA | -1.02 ± 0.14 | -1.13 ± 0.15
ACGUAGCAAUAUUACGUCUU | -3.76 ± 0.16 | -1.92 ± 0.15
ACGUAGCAAUAUUACGUGCG | -2.19 ± 0.1 | -1.17 ± 0.11
ACGUAGCAAUAUUACGUGGU | -4.03 ± 0.18 | -1.13 ± 0.094
ACGUAGCAAUAUUACGUUGU | -3.07 ± 0.11 | -2.01 ± 0.14
ACUAAGCAAUAUUACGAAGU | -3.81 ± 0.38 | -2.1 ± 0.35
ACUAAGCAAUAUUACGAAUG | -2.31 ± 0.13 | -1.2 ± 0.14
ACUAAGCAAUAUUACGACCU | -0.123 ± 0.081 | 0.342 ± 0.1
ACUAAGCAAUAUUACGACGU | -0.322 ± 0.066 | 0.158 ± 0.082

Sequence | self-splicing fitness (ln) (30 °C) | self-splicing fitness (ln) (37 °C)
ACUAAGCAAUAUUACGAGGA | -2.34 ± 0.23 | -2.13 ± 0.2
ACUAAGCAAUAUUACGAGUU | -3.56 ± 0.15 | -3.42 ± 0.25
ACUAAGCAAUAUUACGAUAG | -1.34 ± 0.076 | -0.427 ± 0.096
ACUAAGCAAUAUUACGCAUA | -1.9 ± 0.14 | -2.14 ± 0.14
ACUAAGCAAUAUUACGCCUG | -1.78 ± 0.14 | -0.595 ± 0.15
ACUAAGCAAUAUUACGCGAA | -1.57 ± 0.13 | -1.22 ± 0.17
ACUAAGCAAUAUUACGCGAC | -2.71 ± 0.19 | -2.78 ± 0.21
ACUAAGCAAUAUUACGCGUG | -1.58 ± 0.098 | -0.684 ± 0.095
ACUAAGCAAUAUUACGCGUU | -3.36 ± 0.13 | -1.58 ± 0.11
ACUAAGCAAUAUUACGGAGG | -2.52 ± 0.11 | -1.16 ± 0.13
ACUAAGCAAUAUUACGGCAC | -0.673 ± 0.096 | -1.92 ± 0.095
ACUAAGCAAUAUUACGGCCU | -0.171 ± 0.073 | -0.475 ± 0.087
ACUAAGCAAUAUUACGGCUG | -0.108 ± 0.076 | 0.16 ± 0.097
ACUAAGCAAUAUUACGGGGA | -1.84 ± 0.12 | -1.55 ± 0.13
ACUAAGCAAUAUUACGGUAC | -2.7 ± 0.27 | -1.89 ± 0.19
ACUAAGCAAUAUUACGGUCA | -1.57 ± 0.077 | -1.35 ± 0.094
ACUAAGCAAUAUUACGGUCU | -1.45 ± 0.072 | -0.907 ± 0.082
ACUAAGCAAUAUUACGGUGC | -2.36 ± 0.11 | -2.02 ± 0.15
ACUAAGCAAUAUUACGGUUU | -2.05 ± 0.091 | -0.745 ± 0.096
ACUAAGCAAUAUUACGUAUG | -3.55 ± 0.16 | -1.25 ± 0.14
ACUAAGCAAUAUUACGUCAA | -3.07 ± 0.17 | -1.35 ± 0.14
ACUAAGCAAUAUUACGUCGA | -1.04 ± 0.13 | -1.45 ± 0.12
ACUAAGCAAUAUUACGUGAC | -3.82 ± 0.21 | -1.28 ± 0.14
ACUAAGCAAUAUUACGUGAU | -1.65 ± 0.062 | -1.21 ± 0.077

Sequence | self-splicing fitness (ln) (30 °C) | self-splicing fitness (ln) (37 °C)
ACUAAGCAAUAUUACGUGCU | -1.62 ± 0.073 | -1.06 ± 0.099
ACUAAGCAAUAUUACGUGGU | -3.41 ± 0.15 | -2.73 ± 0.21
ACUAAGCAAUAUUACGUGUC | -3.48 ± 0.14 | -3.57 ± 0.21
ACUCAGCAAUAUUACGAACG | -0.623 ± 0.1 | -0.492 ± 0.14
ACUCAGCAAUAUUACGACCG | -0.553 ± 0.16 | -1 ± 0.15
ACUCAGCAAUAUUACGACGU | -0.498 ± 0.063 | 0.168 ± 0.082
ACUCAGCAAUAUUACGAUAC | -0.894 ± 0.13 | -0.656 ± 0.19
ACUCAGCAAUAUUACGAUCC | -3.06 ± 0.37 | 
ACUCAGCAAUAUUACGAUGA | -1.82 ± 0.12 | -0.791 ± 0.11
ACUCAGCAAUAUUACGCAGU | -3.55 ± 0.16 | -2.28 ± 0.17
ACUCAGCAAUAUUACGCCCC | -1.48 ± 0.12 | 0.148 ± 0.18
ACUCAGCAAUAUUACGCGGG | -2.91 ± 0.15 | -2.68 ± 0.18
ACUCAGCAAUAUUACGGCAG | -1.52 ± 0.089 | -0.501 ± 0.093
ACUCAGCAAUAUUACGGCUU | -0.0445 ± 0.067 | 0.494 ± 0.086
ACUCAGCAAUAUUACGGUCA | -1.11 ± 0.11 | -1.05 ± 0.1
ACUCAGCAAUAUUACGUAGA | -1.41 ± 0.066 | -0.457 ± 0.092
ACUCAGCAAUAUUACGUAGU | -2.86 ± 0.13 | -1.35 ± 0.12
ACUCAGCAAUAUUACGUGAA | -1.27 ± 0.053 | 0.294 ± 0.086
ACUGAGCAAUAUUACGAAGG | -2.53 ± 0.18 | -2.02 ± 0.24
ACUGAGCAAUAUUACGAGGG | -2.5 ± 0.18 | -2.21 ± 0.33
ACUGAGCAAUAUUACGAGUU | -2.88 ± 0.17 | -2.91 ± 0.28
ACUGAGCAAUAUUACGCCAU | -2.4 ± 0.16 | -2.74 ± 0.27
ACUGAGCAAUAUUACGCGGA | -1.94 ± 0.1 | -1.74 ± 0.12
ACUGAGCAAUAUUACGCGGC | -3.69 ± 0.4 | -2.28 ± 0.28

Sequence | self-splicing fitness (ln) (30 °C) | self-splicing fitness (ln) (37 °C)
ACUGAGCAAUAUUACGCGGG | -2.64 ± 0.17 | -2.03 ± 0.18
ACUGAGCAAUAUUACGCUAU | -3.58 ± 0.15 | -2.42 ± 0.14
ACUGAGCAAUAUUACGGACA | -2.8 ± 0.22 | -2.27 ± 0.17
ACUGAGCAAUAUUACGGAGC | -2.54 ± 0.23 | -1.44 ± 0.28
ACUGAGCAAUAUUACGUAGC | -3.07 ± 0.12 | -1.66 ± 0.13
ACUGAGCAAUAUUACGUCAU | -4.08 ± 0.39 | -2.26 ± 0.19
ACUGAGCAAUAUUACGUUAA | -4.3 ± 0.42 | -2.15 ± 0.28
ACUGAGCAAUAUUACGUUUC | -3.19 ± 0.27 | -2.6 ± 0.23
ACUUAGCAAUAUUACGACAC | -2.03 ± 0.14 | -0.762 ± 0.2
ACUUAGCAAUAUUACGACUC | -1.05 ± 0.12 | -0.137 ± 0.15
ACUUAGCAAUAUUACGAUAU | -1.62 ± 0.087 | -1.18 ± 0.11
ACUUAGCAAUAUUACGAUCU | -0.0945 ± 0.076 | 0.51 ± 0.1
ACUUAGCAAUAUUACGCACC | -1.99 ± 0.23 | 0.826 ± 0.29
ACUUAGCAAUAUUACGCCUA | -0.829 ± 0.29 | 0.394 ± 0.2
ACUUAGCAAUAUUACGCCUC | -2.19 ± 0.26 | -1.64 ± 0.3
ACUUAGCAAUAUUACGCGUU | -2.5 ± 0.12 | -2.05 ± 0.12
ACUUAGCAAUAUUACGGAAG | -2.44 ± 0.13 | -1.25 ± 0.14
ACUUAGCAAUAUUACGGGAC | -3.61 ± 0.19 | -2.03 ± 0.17
ACUUAGCAAUAUUACGGUAG | -3.35 ± 0.23 | -1.83 ± 0.23
ACUUAGCAAUAUUACGGUCC | -2.46 ± 0.12 | -1.33 ± 0.12
ACUUAGCAAUAUUACGGUGA | -1.76 ± 0.15 | -1.56 ± 0.15
ACUUAGCAAUAUUACGUAGU | -2.87 ± 0.11 | -2.73 ± 0.19
ACUUAGCAAUAUUACGUCAU | -3.1 ± 0.2 | -1.56 ± 0.17
